The results in this text go back to paper doi:10.1101/2021.08.20.457142.

Sequences and labels used below:
B1: MKK6 D-site peptide / p38-alpha (MAPK14) L195A, full length (parent complex)
chain 1: SQSKGKKRNPGLKIPKEAFEQP
chain 2: MSQERPTFYRQELNKTVWEVPERYQNLSPVGSGAYGSVCAAFDTKTGHRVAVKKLSRPFQSIIHAKRTYRELRLLKHMKHENVIGLLDVFTPARSLEEFNDVYLVTHLMGADLNNIVKCQKLTDDHVQFLIYQILRGLKYIHSADIIHRDLKPSNLAVNEDCELKILDFGLARHTDDEMTGYVATRWYRAPEIMANWMHYNQTVDIWSVGCIMAELLTGRTLFPGTDHIDQLKLILRLVGTPGAELLKKISSESARNYIQSLAQMPKMNFANVFIGANPLAVDLLEKMLVLDSDKRITAAQALAHAYFAQYHDPDDEPVAEPYDQSFESRDFLIDEWKSLTYDEVISFVPPPLDQEEMES

The experiment covers variants of B1.
On to chain 1 SQSKEKKRNPGLKIPKEAFEQP [chain 1 G5E], for which the screen value is 0.392 Z-score of the enrichment rate within one screen of 711 sequences.
As for chain 1 SQSKYKKRNPGLKIPKEAFEQP [chain 1 G5Y], the screen value was 2 Z-score of the enrichment rate within one screen of 711 sequences.
In the case of chain 1 SQSKRKKRNPGLKIPKEAFEQP [chain 1 G5R], the screen value is 3.17 Z-score of the enrichment rate within one screen of 711 sequences.
With chain 1 SQSKGKKANPGLAIPKEAFEQP [chain 1 R8A, chain 1 K13A], the screen value is -1.04 Z-score of the enrichment rate within one screen of 711 sequences.
Regarding chain 1 SQSKGKKRMPGLKIPKEAFEQP [chain 1 N9M], the screen value is 1.1 Z-score of the enrichment rate within one screen of 711 sequences.
As to chain 1 SQSKGKKRIPGLKIPKEAFEQP [chain 1 N9I], the screen value is 0.56 Z-score of the enrichment rate within one screen of 711 sequences.
For chain 1 SQSAGKKRAPGLKIPKEAFEQP [chain 1 K4A, chain 1 N9A] the value was 0.386 Z-score of the enrichment rate within one screen of 711 sequences.
Take chain 1 SQSKGKKRNPGAKIAKEAFEQP [chain 1 L12A, chain 1 P15A]: the screen value is -0.373 Z-score of the enrichment rate within one screen of 711 sequences.
chain 1 SQSKGKRRNPGLKIPKEAFEQP [chain 1 K7R]: the screen value is 2.22 Z-score of the enrichment rate within one screen of 711 sequences.
For chain 1 SQSKGKKRAPGAKIPKEAFEQP [chain 1 N9A, chain 1 L12A], the screen value is -0.96 Z-score of the enrichment rate within one screen of 711 sequences.
On to chain 1 SQSKGKKRNQGLKIPKEAFEQP [chain 1 P10Q], for which the screen value is 0.417 Z-score of the enrichment rate within one screen of 711 sequences.
In the case of chain 1 SQSKGKKRNKGLKIPKEAFEQP [chain 1 P10K] it was 0.591 Z-score of the enrichment rate within one screen of 711 sequences; in that of chain 1 SQHKGKKRNPGLKIPKEAFEQP [chain 1 S3H], 1.56 Z-score of the enrichment rate within one screen of 711 sequences.
Turning to chain 1 SQTKGKKRNPGLKIPKEAFEQP [chain 1 S3T], the screen value is 1.74 Z-score of the enrichment rate within one screen of 711 sequences.
As for chain 1 SQMKGKKRNPGLKIPKEAFEQP [chain 1 S3M], the screen value is 2.21 Z-score of the enrichment rate within one screen of 711 sequences.
Consider chain 1 SQSKGKKRNPWLKIPKEAFEQP [chain 1 G11W], for which the screen value was 0.816 Z-score of the enrichment rate within one screen of 711 sequences.
Consider chain 1 SQSKGKKRNPELKIPKEAFEQP [chain 1 G11E], for which the screen value was 0.286 Z-score of the enrichment rate within one screen of 711 sequences.
Turning to chain 1 SQSAGKKRNPGLKIAKEAFEQP [chain 1 K4A, chain 1 P15A], the screen value was 1.47 Z-score of the enrichment rate within one screen of 711 sequences.
chain 1 SQSKGQKRNPGLKIPKEAFEQP [chain 1 K6Q]: the screen value is 0.371 Z-score of the enrichment rate within one screen of 711 sequences.
In the case of chain 1 SQSKGYKRNPGLKIPKEAFEQP [chain 1 K6Y] it was 0.469 Z-score of the enrichment rate within one screen of 711 sequences; in that of chain 1 SQSKGWKRNPGLKIPKEAFEQP [chain 1 K6W], 0.936 Z-score of the enrichment rate within one screen of 711 sequences; in that of chain 1 SQSKGMKRNPGLKIPKEAFEQP [chain 1 K6M], 1.22 Z-score of the enrichment rate within one screen of 711 sequences.
Take chain 1 SQSKGKKRNPGLKCPKEAFEQP [chain 1 I14C]: the screen value is -0.81 Z-score of the enrichment rate within one screen of 711 sequences.
Take chain 1 SQSKGKKRNPGLKRPKEAFEQP [chain 1 I14R]: the screen value was -1.31 Z-score of the enrichment rate within one screen of 711 sequences.
Consider chain 1 SQSKGKKRNPGLKYPKEAFEQP [chain 1 I14Y], for which the screen value is -1.19 Z-score of the enrichment rate within one screen of 711 sequences.
chain 1 SQSKGKKRNPGQKIPKEAFEQP [chain 1 L12Q]: the screen value was -1.19 Z-score of the enrichment rate within one screen of 711 sequences.
Regarding chain 1 SQSKGKKRNPGWKIPKEAFEQP [chain 1 L12W], the screen value was -0.0439 Z-score of the enrichment rate within one screen of 711 sequences.
chain 1 SQSKGKKRNPGYKIPKEAFEQP [chain 1 L12Y]: the screen value was -1.09 Z-score of the enrichment rate within one screen of 711 sequences.
For chain 1 SQSKGKKRNPGLKIPFEAFEQP [chain 1 K16F] the value was 0.506 Z-score of the enrichment rate within one screen of 711 sequences.
In the case of chain 1 SQSKGKKRNPGLKIPSEAFEQP [chain 1 K16S] it was 0.134 Z-score of the enrichment rate within one screen of 711 sequences.
Regarding chain 1 SQSKGKKRNPGLKIPHEAFEQP [chain 1 K16H], the screen value was 0.315 Z-score of the enrichment rate within one screen of 711 sequences.
Regarding chain 1 SQSKGKKWNPGLKIPKEAFEQP [chain 1 R8W], the screen value is 0.178 Z-score of the enrichment rate within one screen of 711 sequences.
On to chain 1 SQSKGKKFNPGLKIPKEAFEQP [chain 1 R8F], for which the screen value is 0.775 Z-score of the enrichment rate within one screen of 711 sequences.
Turning to chain 1 SQSKGKKPNPGLKIPKEAFEQP [chain 1 R8P], the screen value was -0.0227 Z-score of the enrichment rate within one screen of 711 sequences.
On to chain 1 SQSKGKKRNPGLYIPKEAFEQP [chain 1 K13Y], for which the screen value is -0.0639 Z-score of the enrichment rate within one screen of 711 sequences.
For chain 1 SQSKGKKRNPGLQIPKEAFEQP [chain 1 K13Q] the value was -0.188 Z-score of the enrichment rate within one screen of 711 sequences; for chain 1 SQSKGKKRNPGLKAPAEAFEQP [chain 1 I14A, chain 1 K16A], -0.243 Z-score of the enrichment rate within one screen of 711 sequences.
Consider chain 1 SQSKGKKRNAGAKIPKEAFEQP [chain 1 P10A, chain 1 L12A], for which the screen value is -0.884 Z-score of the enrichment rate within one screen of 711 sequences.
In the case of chain 1 SQSKGKAANPGLKIPKEAFEQP [chain 1 K7A, chain 1 R8A] it was -0.694 Z-score of the enrichment rate within one screen of 711 sequences.
Regarding chain 1 SQSKGAKRAPGLKIPKEAFEQP [chain 1 K6A, chain 1 N9A], the screen value is -0.245 Z-score of the enrichment rate within one screen of 711 sequences.
Turning to chain 1 SQSKGKKRNPGLKIMKEAFEQP [chain 1 P15M], the screen value was 1.84 Z-score of the enrichment rate within one screen of 711 sequences.
Turning to chain 1 SQSKGKKRNPGLKIWKEAFEQP [chain 1 P15W], the screen value was 0.627 Z-score of the enrichment rate within one screen of 711 sequences.
Consider chain 1 SQSKGKKRNPGLKISKEAFEQP [chain 1 P15S], for which the screen value is 2.36 Z-score of the enrichment rate within one screen of 711 sequences.
Turning to chain 1 SQSKGKKRNPGLKIDKEAFEQP [chain 1 P15D], the screen value is 0.934 Z-score of the enrichment rate within one screen of 711 sequences.
For chain 1 SQSKGKKRNPGLKIIKEAFEQP [chain 1 P15I] the value was 1.61 Z-score of the enrichment rate within one screen of 711 sequences.
In the case of chain 1 SQSAGKKRNAGLKIPKEAFEQP [chain 1 K4A, chain 1 P10A] it was -0.0905 Z-score of the enrichment rate within one screen of 711 sequences.
As to chain 1 SQSKGKKRNPGAAIPKEAFEQP [chain 1 L12A, chain 1 K13A], the screen value is -1.08 Z-score of the enrichment rate within one screen of 711 sequences.
For chain 1 SQAKAKKRNPGLKIPKEAFEQP [chain 1 S3A, chain 1 G5A], the screen value is 2.03 Z-score of the enrichment rate within one screen of 711 sequences.
For chain 1 SQAKGKKANPGLKIPKEAFEQP [chain 1 S3A, chain 1 R8A] the value was -0.296 Z-score of the enrichment rate within one screen of 711 sequences; for chain 1 SQSKAKKRNPGAKIPKEAFEQP [chain 1 G5A, chain 1 L12A], -0.353 Z-score of the enrichment rate within one screen of 711 sequences.
Take chain 1 SQAKGAKRNPGLKIPKEAFEQP [chain 1 S3A, chain 1 K6A]: the screen value was 0.57 Z-score of the enrichment rate within one screen of 711 sequences.
